Among the data in EP4484444A1 are enhancement factor of CPIII-Long cleavage by BMP-1 with 4 equivalents and enhancement factor of CPIII-Long processing by BMP-1 values, retold here.

This assay concerns the target CPIII-Long (model substrate derived from procollagen III). Briefly: cell-based or functional assay.

With “human PCPE-1 fused to a C-terminal 8His tag (from UniProt Q15113 26-449)”, the enhancement factor of CPIII-Long cleavage by BMP-1 with 4 equivalents was greater than 3 and the enhancement factor of CPIII-Long processing by BMP-1 was 1.7.
